Source: the MegaScale stability set (Tsuboyama et al. 2023)

B1: EEHEE_rd4_0003 (parent)
chain: KKVTINGVEIKFNNPEEAVKFALELAKRLNLRIEFHGDQIKIE

Variants of: B1
Assay: folding stability dG (cDNA display proteolysis); higher = more stable
Details: PBS, room temperature

**Q.** Which “folding stability dG” value does the source give for KAVTINGVEIKFNNPEEAVKFALELAKRLNLRIEFHGDQIKIE here?
**A.** The value was 2.46 kcal/mol.

**Q.** With KNVTINGVEIKFNNPEEAVKFALELAKRLNLRIEFHGDQIKIE as the variant, how does the “folding stability dG” value read?
**A.** The value was 2.48 kcal/mol.

**Q.** Which “folding stability dG” value does the source give for KLVTINGVEIKFNNPEEAVKFALELAKRLNLRIEFHGDQIKIE here?
**A.** The value was 2.84 kcal/mol.

**Q.** Which “folding stability dG” value does the source give for KKVTINGVEIKFNNPEEAVKFALELAKRLNLRIEFHGLQIKIE here?
**A.** Its value is 2.33 kcal/mol.

**Q.** With KKVTINGVEIKFNNPEEAVKFALELAKRLNLRIEFHGRQIKIE as the variant, how does the “folding stability dG” value read?
**A.** Its value is 2.01 kcal/mol.

**Q.** For KKVTINGVEIKFNNPEEAVKFALELAKRLNLRIEFHGEQIKIE, which “folding stability dG” value is on record?
**A.** Its value is 2.3 kcal/mol.

**Q.** With KKVTINGVEIKFPNPEEAVKFALELAKRLNLRIEFHGDQIKIE as the variant, how does the “folding stability dG” value read?
**A.** Its value is 2.53 kcal/mol.

**Q.** With KKVTINGVEIKFDNPEEAVKFALELAKRLNLRIEFHGDQIKIE as the variant, how does the “folding stability dG” value read?
**A.** Its value is 2.73 kcal/mol.

**Q.** For KKVTINGVEIKFNNPEEAVKFALELAKRLNSRIEFHGDQIKIE, which “folding stability dG” value is on record?
**A.** The value was 1.7 kcal/mol.

**Q.** Which “folding stability dG” value does the source give for KKVTINGVEIKFNNPEEAVKFALELAKRLNRRIEFHGDQIKIE here?
**A.** The value was 1.34 kcal/mol.

**Q.** Which “folding stability dG” value does the source give for KKVTINGVEIKFNNPEEAVKFALELAKRLNDRIEFHGDQIKIE here?
**A.** Its value is 0.559 kcal/mol.

**Q.** For KKVTINGVEIKFNNPEEAVKFALELAKRLNTRIEFHGDQIKIE, which “folding stability dG” value is on record?
**A.** The value was 1.71 kcal/mol.

**Q.** Which “folding stability dG” value does the source give for KKVTINGVEIKFNNPEEAVKFALELAKRLNVRIEFHGDQIKIE here?
**A.** The value was 2.56 kcal/mol.

**Q.** For KKVTMNGVEIKFNNPEEAVKFALELAKRLNLRIEFHGDQIKIE, which “folding stability dG” value is on record?
**A.** Its value is 2.07 kcal/mol.

**Q.** With KKVTGNGVEIKFNNPEEAVKFALELAKRLNLRIEFHGDQIKIE as the variant, how does the “folding stability dG” value read?
**A.** Its value is 1.72 kcal/mol.

**Q.** With KKVTINGVEIKFNNPEKAVKFALELAKRLNLRIEFHGDQIKIE as the variant, how does the “folding stability dG” value read?
**A.** Its value is 2.3 kcal/mol.

**Q.** Which “folding stability dG” value does the source give for KKVTINGVEIKFNNPEEAVKFALELAKRHNLRIEFHGDQIKIE here?
**A.** Its value is 2.21 kcal/mol.

**Q.** For KKVTINGVEIKFNNPEEAVKFALELAKRTNLRIEFHGDQIKIE, which “folding stability dG” value is on record?
**A.** The value was 1.61 kcal/mol.

**Q.** For KKVTINGVEIKFNNPEEAVKFALELAKRPNLRIEFHGDQIKIE, which “folding stability dG” value is on record?
**A.** The value was 1.52 kcal/mol.

**Q.** With KKVTINGVEIKFNNPEEAVKFALELAKRGNLRIEFHGDQIKIE as the variant, how does the “folding stability dG” value read?
**A.** The value was 1.88 kcal/mol.

**Q.** For KKVTINGVEIKFNNPEEAVKFALELAKRENLRIEFHGDQIKIE, which “folding stability dG” value is on record?
**A.** Its value is 1.66 kcal/mol.

**Q.** With KKVTINGVEIKFNNIEEAVKFALELAKRLNLRIEFHGDQIKIE as the variant, how does the “folding stability dG” value read?
**A.** The value was 2.85 kcal/mol.

**Q.** Which “folding stability dG” value does the source give for KKVTINGVEIKFNNAEEAVKFALELAKRLNLRIEFHGDQIKIE here?
**A.** Its value is 2.78 kcal/mol.

**Q.** With KKVTINGVEIKFNNNEEAVKFALELAKRLNLRIEFHGDQIKIE as the variant, how does the “folding stability dG” value read?
**A.** The value was 2.45 kcal/mol.

**Q.** With KKVTINGVEIKFNNKEEAVKFALELAKRLNLRIEFHGDQIKIE as the variant, how does the “folding stability dG” value read?
**A.** Its value is 2.47 kcal/mol.

**Q.** Which “folding stability dG” value does the source give for KKVTINGVEIKFNNMEEAVKFALELAKRLNLRIEFHGDQIKIE here?
**A.** The value was 2.97 kcal/mol.

**Q.** Which “folding stability dG” value does the source give for KKVTINGVEIKFNNPEEAVEFALELAKRLNLRIEFHGDQIKIE here?
**A.** The value was 2.28 kcal/mol.

**Q.** With KKVTINGVEIKFNNPEEAVFFALELAKRLNLRIEFHGDQIKIE as the variant, how does the “folding stability dG” value read?
**A.** Its value is 2.51 kcal/mol.

**Q.** For KKVTINGVEIKFNNPEEAVHFALELAKRLNLRIEFHGDQIKIE, which “folding stability dG” value is on record?
**A.** The value was 2.2 kcal/mol.

**Q.** With KKVTIFGVEIKFNNPEEAVKFALELAKRLNLRIEFHGDQIKIE as the variant, how does the “folding stability dG” value read?
**A.** The value was 3.23 kcal/mol.

**Q.** For KKVTIVGVEIKFNNPEEAVKFALELAKRLNLRIEFHGDQIKIE, which “folding stability dG” value is on record?
**A.** The value was 2.52 kcal/mol.

**Q.** For KKVTINGVEIKFNNPEEAVKFALELAKRLNLRIEFHGDQIFIE, which “folding stability dG” value is on record?
**A.** The value was 3 kcal/mol.

**Q.** For KKVTINGGEIKFNNPEEAVKFALELAKRLNLRIEFHGDQIKIE, which “folding stability dG” value is on record?
**A.** Its value is 1.78 kcal/mol.

**Q.** Which “folding stability dG” value does the source give for KKVTINGYEIKFNNPEEAVKFALELAKRLNLRIEFHGDQIKIE here?
**A.** Its value is 2.82 kcal/mol.

**Q.** Which “folding stability dG” value does the source give for KKVTINGEEIKFNNPEEAVKFALELAKRLNLRIEFHGDQIKIE here?
**A.** Its value is 1.99 kcal/mol.

**Q.** Which “folding stability dG” value does the source give for KKVTINGSEIKFNNPEEAVKFALELAKRLNLRIEFHGDQIKIE here?
**A.** The value was 1.97 kcal/mol.

**Q.** With KKVTINGVEIKFNNPEEAVKFALELAKRLNLRIELHGDQIKIE as the variant, how does the “folding stability dG” value read?
**A.** The value was 2.2 kcal/mol.

**Q.** For KKVTINGVEIKFNNPEEAVKFALELAKRLNLRIEEHGDQIKIE, which “folding stability dG” value is on record?
**A.** The value was 1.63 kcal/mol.

**Q.** For KKSTINGVEIKFNNPEEAVKFALELAKRLNLRIEFHGDQIKIE, which “folding stability dG” value is on record?
**A.** The value was 1.46 kcal/mol.

**Q.** For KKVTINGVEIKFNNPEEAVKFALLLAKRLNLRIEFHGDQIKIE, which “folding stability dG” value is on record?
**A.** The value was 2.66 kcal/mol.

**Q.** For KKVTINGVEIKFNNPEEAVKFALKLAKRLNLRIEFHGDQIKIE, which “folding stability dG” value is on record?
**A.** The value was 2.4 kcal/mol.

**Q.** For KKVTINGVEIKFNNPEEAVKFALFLAKRLNLRIEFHGDQIKIE, which “folding stability dG” value is on record?
**A.** The value was 2.58 kcal/mol.

**Q.** With KKVTINGVEIKFNNPNEAVKFALELAKRLNLRIEFHGDQIKIE as the variant, how does the “folding stability dG” value read?
**A.** Its value is 2.43 kcal/mol.

**Q.** For KKVTINGVEIKFNNPFEAVKFALELAKRLNLRIEFHGDQIKIE, which “folding stability dG” value is on record?
**A.** Its value is 2.69 kcal/mol.

**Q.** With KKVTINGVEIKFNNPEEAVKFALEGAKRLNLRIEFHGDQIKIE as the variant, how does the “folding stability dG” value read?
**A.** Its value is 0.776 kcal/mol.

**Q.** Which “folding stability dG” value does the source give for KKVTINGVEIKFNNPEEAVKFALEHAKRLNLRIEFHGDQIKIE here?
**A.** Its value is 1.48 kcal/mol.

**Q.** For KKVTINGVEIKFNNPEEAVKFALEQAKRLNLRIEFHGDQIKIE, which “folding stability dG” value is on record?
**A.** Its value is 1.62 kcal/mol.

**Q.** With KKVTINGVEIKFNNPEEEVKFALELAKRLNLRIEFHGDQIKIE as the variant, how does the “folding stability dG” value read?
**A.** Its value is 1.47 kcal/mol.

**Q.** For KKVTINGVEIKFNNPEELVKFALELAKRLNLRIEFHGDQIKIE, which “folding stability dG” value is on record?
**A.** The value was 2.59 kcal/mol.

**Q.** For KKVTINGVEIKFNNPEEAVKFALELAKYLNLRIEFHGDQIKIE, which “folding stability dG” value is on record?
**A.** The value was 2.63 kcal/mol.

**Q.** Which “folding stability dG” value does the source give for KKVTINGVEIKFNNPEEAVKFALELAKMLNLRIEFHGDQIKIE here?
**A.** The value was 2.5 kcal/mol.

**Q.** Which “folding stability dG” value does the source give for KKVTINGVEIKFNNPEEAVKFALELAKALNLRIEFHGDQIKIE here?
**A.** The value was 2.39 kcal/mol.

**Q.** For KKVTINGVEIKFNNPEEAVKFALELAKLLNLRIEFHGDQIKIE, which “folding stability dG” value is on record?
**A.** The value was 2.57 kcal/mol.

**Q.** Which “folding stability dG” value does the source give for KKVTINGVEIKFNNPEEAVKFALELAKRLNLRIEFHDDQIKIE here?
**A.** The value was 2.45 kcal/mol.

**Q.** For KKVTINGVEIKFNNPEEAVKFALELAKRLNLRIEFHHDQIKIE, which “folding stability dG” value is on record?
**A.** Its value is 2.42 kcal/mol.

**Q.** Which “folding stability dG” value does the source give for KKVTINGVEIKFNNPEEAIKFALELAKRLNLRIEFHGDQIKIE here?
**A.** Its value is 2.9 kcal/mol.

**Q.** Which “folding stability dG” value does the source give for KKVTINGVEIKFNNPEEAKKFALELAKRLNLRIEFHGDQIKIE here?
**A.** The value was 2.33 kcal/mol.

**Q.** For KKVTINGVEIKFNNPEEAMKFALELAKRLNLRIEFHGDQIKIE, which “folding stability dG” value is on record?
**A.** The value was 2.94 kcal/mol.

**Q.** For KKVTINGVEIKFNNPEEALKFALELAKRLNLRIEFHGDQIKIE, which “folding stability dG” value is on record?
**A.** Its value is 3.07 kcal/mol.
